Reference: IntAct's records for PubMed 17955262

B1: Frizzled-4 (Homo sapiens), Q9ULV1 (parent)
chain: MAWRGAGPSVPGAPGGVGLSLGLLLQLLLLLGPARGFGDEEERRCDPIRISMCQNLGYNVTKMPNLVGHELQTDAELQLTTFTPLIQYGCSSQLQFFLCSVYVPMCTEKINIPIGPCGGMCLSVKRRCEPVLKEFGFAWPESLNCSKFPPQNDHNHMCMEGPGDEEVPLPHKTPIQPGEECHSVGTNSDQYIWVKRSLNCVLKCGYDAGLYSRSAKEFTDIWMAVWASLCFISTAFTVLTFLIDSSRFSYPERPIIFLSMCYNIYSIAYIVRLTVGRERISCDFEEAAEPVLIQEGLKNTGCAIIFLLMYFFGMASSIWWVILTLTWFLAAGLKWGHEAIEMHSSYFHIAAWAIPAVKTIVILIMRLVDADELTGLCYVGNQNLDALTGFVVAPLFTYLVIGTLFIAAGLVALFKIRSNLQKDGTKTDKLERLMVKIGVFSVLYTVPATCVIACYFYEISNWALFRYSADDSNMAVEMLKIFMSLLVGITSGMWIWSAKTLHTWQKCSNRLVNSGKVKREKRGNGWVKPGKGSETVV
B2: Norrin (Homo sapiens), Q00604 (parent)
chain: MRKHVLAASFSMLSLLVIMGDTDSKTDSSFIMDSDPRRCMRHHYVDSISHPLYKCSSKMVLLARCEGHCSQASRSEPLVSFSTVLKQPFRSSCHCCRPQTSKLKALRLRCSGGMRLTATYRYILSCHCEECNS

Variants of: B1
Conditions: with ndp_human NDP, Q00604

effect of a mutation on the interaction | Variant
decreasing interaction | M105V

Variants of: B2
Conditions: with fzd4_human FZD4, Q9ULV1

effect of a mutation on the interaction | Variant
decreasing interaction | K54D
decreasing interaction | R115L
